Experimental data from article PMC6344286 (Arteriosclerosis, thrombosis, and vascular biology, 2019).

Columns and labels:
[1] = biological target: T1, p47phox, recombinant wild type (human), P14598; test: non-reducing SDS-PAGE of a disulfide-linked complex; details: remark: other sources report otherwise
T1 chain: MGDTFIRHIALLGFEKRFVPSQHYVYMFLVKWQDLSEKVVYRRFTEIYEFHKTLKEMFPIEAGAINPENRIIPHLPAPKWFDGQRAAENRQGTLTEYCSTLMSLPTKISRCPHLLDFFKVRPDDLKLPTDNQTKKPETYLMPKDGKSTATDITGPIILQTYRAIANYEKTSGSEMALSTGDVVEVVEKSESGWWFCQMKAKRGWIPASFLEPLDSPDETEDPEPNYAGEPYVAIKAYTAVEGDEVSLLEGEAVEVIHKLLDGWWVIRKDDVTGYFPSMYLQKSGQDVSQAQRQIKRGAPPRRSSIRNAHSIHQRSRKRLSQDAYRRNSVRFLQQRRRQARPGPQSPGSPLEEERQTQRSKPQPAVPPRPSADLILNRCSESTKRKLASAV

[2] = biological target: Protein disulfide isomerase A1 (PDI), recombinant wild type (human, UniProt P07237 18-508); test: as above
Protein disulfide isomerase A1 (PDI), recombinant wild type, sequence (P07237 18-508): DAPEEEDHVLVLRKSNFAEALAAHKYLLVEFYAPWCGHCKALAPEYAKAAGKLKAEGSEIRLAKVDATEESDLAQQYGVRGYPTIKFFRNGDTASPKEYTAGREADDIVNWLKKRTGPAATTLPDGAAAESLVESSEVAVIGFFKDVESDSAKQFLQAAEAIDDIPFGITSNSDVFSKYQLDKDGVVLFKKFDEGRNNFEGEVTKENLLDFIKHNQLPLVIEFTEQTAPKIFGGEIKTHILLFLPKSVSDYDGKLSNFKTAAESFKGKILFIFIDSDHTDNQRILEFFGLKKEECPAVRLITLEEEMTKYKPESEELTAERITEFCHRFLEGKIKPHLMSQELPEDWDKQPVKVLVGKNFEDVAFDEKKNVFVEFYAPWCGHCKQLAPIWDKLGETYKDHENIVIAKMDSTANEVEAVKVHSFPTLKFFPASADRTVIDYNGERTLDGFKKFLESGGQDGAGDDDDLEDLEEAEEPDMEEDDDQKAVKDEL

B1: p47phox, recombinant wild type (natural protein, human, UniProt P14598 1-390, looked up)
chain: MGDTFIRHIALLGFEKRFVPSQHYVYMFLVKWQDLSEKVVYRRFTEIYEFHKTLKEMFPIEAGAINPENRIIPHLPAPKWFDGQRAAENRQGTLTEYCSTLMSLPTKISRCPHLLDFFKVRPDDLKLPTDNQTKKPETYLMPKDGKSTATDITGPIILQTYRAIANYEKTSGSEMALSTGDVVEVVEKSESGWWFCQMKAKRGWIPASFLEPLDSPDETEDPEPNYAGEPYVAIKAYTAVEGDEVSLLEGEAVEVIHKLLDGWWVIRKDDVTGYFPSMYLQKSGQDVSQAQRQIKRGAPPRRSSIRNAHSIHQRSRKRLSQDAYRRNSVRFLQQRRRQARPGPQSPGSPLEEERQTQRSKPQPAVPPRPSADLILNRCSESTKRKLASAV
[1]
  stoichiometry N: 2
[2]
  binding result: binds
